Sequences and labels used below:
B1: SlmA (synthetic lethal with a defective Min system) (natural protein)
chain: MAEKQTAKRNRREEILQSLALMLESSDGSQRITTAKLAASVGVSEAALYRHFPSKTRMFDSLIEFIEDSLITRINLILKDEKDTTARLRLIVLLLLGFGERNPGLTRILTGHALMFEQDRLQGRINQLFERIEAQLRQVLREKRMREGEGYTTDETLLASQILAFCEGMLSRFVRSEFKYRPTDDFDARWPLIAAQLQ
B3: FtsZ, full length (E. coli) (natural protein)
chain: MFEPMELTNDAVIKVIGVGGGGGNAVEHMVRERIEGVEFFAVNTDAQALRKTAVGQTIQIGSGITKGLGAGANPEVGRNAADEDRDALRAALEGADMVFIAAGMGGGTGTGAAPVVAEVAKDLGILTVAVVTKPFNFEGKKRMAFAEQGITELSKHVDSLITIPNDKLLKVLGRGISLLDAFGAANDVLKGAVQGIAELITRPGLMNVDFADVRTVMSEMGYAMMGSGVASGEDRAEEAAEMAISSPLLEDIDLSGARGVLVNITAGFDLRLDEFETVGNTIRAFASDNATVVIGTSLDPDMNDELRVTVVATGIGMDKRPEITLVTNKQVQQPVMDRYQQHGMAPLTQEQKPVAKVVNDNAPQTAKEPDYLDIPAFLRKQAD

Data set [1] addresses B3. Nature of the data set: fluorescence polarisation. A general note: Polarisation of emitted light reports the rotation of a fluorescent probe.
Data set [2] concerns the molecule itself. Description: SEC. Background: SEC sorts molecules by how far they enter the pores of the column.
The target of data set [3] is B3. Nature of the data set: fluorescence polarisation. The source holds these as a separate data set.
The target of data set [4] is T1, SlmA (synthetic lethal with a defective Min system) (E. coli), P0C093.
T1 chain: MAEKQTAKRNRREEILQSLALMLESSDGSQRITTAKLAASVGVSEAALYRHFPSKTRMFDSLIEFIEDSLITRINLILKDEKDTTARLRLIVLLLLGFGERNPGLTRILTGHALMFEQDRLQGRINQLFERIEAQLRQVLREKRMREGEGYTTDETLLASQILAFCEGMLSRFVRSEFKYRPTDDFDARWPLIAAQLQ
Nature of the data set: fluorescence polarisation. Conditions: remark: other sources report otherwise.

The target of data set [5] is B1. Nature of the data set: SAXS.
Data set [6] concerns the molecule itself. Nature of the data set: SAXS.
The target in data set [7] is T2, SlmA (Escherichia coli, UniProt P0C093 1-198).
T2 sequence: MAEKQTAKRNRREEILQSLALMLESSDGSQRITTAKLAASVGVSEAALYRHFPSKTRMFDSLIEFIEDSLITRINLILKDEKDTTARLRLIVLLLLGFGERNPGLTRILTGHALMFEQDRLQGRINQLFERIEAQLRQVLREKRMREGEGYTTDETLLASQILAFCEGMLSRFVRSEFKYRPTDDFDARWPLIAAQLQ
Nature of the data set: fluorescence polarization.

“And” between values parts separate entries of the source, which are not always exact repeats. Equal entries are not always repeated. Where two headings read alike, the source gives them in different places.

With B1, the Kd in data set [1] is 142 nM and 130 nM and 205 nM; in data set [3], 119 ± 11 nM. Also, in data set [2], the “stoichiometry N” value was found to be 2.

B2: C-terminal truncated FtsZ, FtsZ(1–360), P0A9A6 1-360 (domain or fragment)
chain: MFEPMELTNDAVIKVIGVGGGGGNAVEHMVRERIEGVEFFAVNTDAQALRKTAVGQTIQIGSGITKGLGAGANPEVGRNAADEDRDALRAALEGADMVFIAAGMGGGTGTGAAPVVAEVAKDLGILTVAVVTKPFNFEGKKRMAFAEQGITELSKHVDSLITIPNDKLLKVLGRGISLLDAFGAANDVLKGAVQGIAELITRPGLMNVDFADVRTVMSEMGYAMMGSGVASGEDRAEEAAEMAISSPLLEDIDLSGARGVLVNITAGFDLRLDEFETVGNTIRAFASDNATVVIGTSLDPDMNDELRVTVVATGIGMDKRPEITLVTNKQVQQPVMDRYQQHGMAPLTQEQKPVAKVVND
B2: the Kd in data set [4] was determined as 148 nM. As for B3, the “stoichiometry N” value in data set [5] was 1 SlmA:FtsZ. Also, the binding result in data set [6] is listed as “binds”.

B4: SBS position 3 G to A (symmetric double mutant) (dsDNA)
DNA 1: GTAAGTACTTAC
DNA 2: GTAAGTACTTAC
B4 showed a Kd in data set [7] of around 60 nM.

B5: randomized DNA 1 (dsDNA)
DNA 1: AGTCTATAGACT
DNA 2: AGTCTATAGACT
Turning to B5, the binding result in data set [7] is “no binding”.

B6: randomized DNA 2 (dsDNA)
DNA 1: CCTCAGCTGAGG
DNA 2: CCTCAGCTGAGG
For the molecule B6, in data set [7], the binding result was “no binding”.

A word on the Kd: it is a measure of binding affinity in units of concentration. Higher therefore signals lower affinity. Broadly, the stoichiometry N is a count of units in the complex or per binding partner.

(Values after paper PMC3020112 (The EMBO Journal, 2010).)
